Test results: patent US20130017251A1 (J DAVID GLADSTONE INSTITUTES, published 2013)

Assays:
[1] = molecular target: T1, N-terminal 22-kDa fragment of apoE3 (aa 1-191) (human, UniProt P02649 19-209); experiment: ELISA on coated fragment
T1 construct: Range 1-191 is in apoE (299-residue) numbering
Protocol: (§1) ApoE ELISA. […] Wells were washed several times with wash buffer (PBS containing 0.1% bovine serum albumin (BSA)) and blocked for 1 h with 4% BSA in PBS. All incubations were performed at room temperature. […] Secondary antibodies against goat or mouse IgG labeled with horse radish peroxidase (HRP) diluted in blocking buffer were added to the wells after several washes and incubated for 1 h. […] substrate (Thermo-Pierce) was used to visualize the amount of bound secondary antibody at 450 nm on a SpectraMax190 plate reader (Molecular Devices) using Softmax Pro software for data collection.
(§2) A, A schematic of different functional domains of human apoE. […] All experiments were performed in triplicate. Values are mean±SD. OD, optical density.

[2] = molecular target: T2, N-terminal 22-kDa fragment of apoE4 (aa 1-191) (human, UniProt P02649 19-209); experiment: ELISA on coated fragment
T2 construct: Range 1-191 is in apoE (299-residue) numbering
T2 chain: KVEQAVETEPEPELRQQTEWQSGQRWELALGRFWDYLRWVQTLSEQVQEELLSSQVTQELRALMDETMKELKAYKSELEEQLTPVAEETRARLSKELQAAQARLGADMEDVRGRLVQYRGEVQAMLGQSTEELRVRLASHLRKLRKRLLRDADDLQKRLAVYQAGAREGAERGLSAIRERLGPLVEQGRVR
Protocol: as §1, §2

apoE(1-260) = molecular target: T3, apoE(1-260) (human, UniProt P02649 19-278); experiment: western blot, transfected Neuro-2a cells
T3 construct: Expressed in transiently transfected Neuro-2a cells; also called apoE4(1-260)
Protocol: (§3) Cell culture, transfection, and western blotting. Mouse neuroblastoma (Neuro-2a) and astrocytic (C6) cells (American Type Culture Collection, Manassas, Va.) maintained at 37° C. in MEM containing 10% fetal bovine serum (FBS) were transiently transfected with different apoE cDNA constructs using Lipofectamine 2000 (Invitrogen) (Huang et al., 2001). Neuro-2a cells expressing different forms of apoE were collected in a low-detergent lysis buffer, separated by sodium dodecyl sulfate-polyacrylamide gel electrophoresis (SDS-PAGE), and immunoblotted for apoE with polyclonal and monoclonal antibodies, as described (Huang et al., 2001).

apoE(1-240) = molecular target: T4, apoE(1-240) (human, UniProt P02649 19-258); experiment: western blot, transfected Neuro-2a cells
T4 construct: If 1-244 is right the range is 19-262
Protocol: as §3

[3] = molecular target: T5, green fluorescent protein-apoE(231-272) (human, UniProt P02649 249-290, not fully specified); experiment: western blot, transfected Neuro-2a cells
T5 construct: Expressed in transiently transfected Neuro-2a cells; not shown: green fluorescent protein tag
T5 chain: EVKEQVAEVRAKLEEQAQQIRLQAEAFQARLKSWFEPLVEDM
Protocol: as §3

[4] = molecular target: T6, recombinant human apolipoprotein E4, full length (human, UniProt P02649 19-317); experiment: ELISA; apoE coated (50 ng/well), 3H1 as primary antibody
T6 construct: Recombinant protein in ELISA; expressed in transfected Neuro-2a or C6 cells for western blot and cell staining; also called apoE4; apoE4(1-299)
Protocol: Secondary antibodies against goat or mouse IgG labeled with horse radish peroxidase (HRP) diluted in blocking buffer were added to the wells after several washes and incubated for 1 h. […] substrate (Thermo-Pierce) was used to visualize the amount of bound secondary antibody at 450 nm on a SpectraMax190 plate reader (Molecular Devices) using Softmax Pro software for data collection.
as §2

[5] = molecular target: T7, DMPC-lipidated apoE3 (DMPC:apoE=4:1) (human, UniProt P02649 19-317); experiment: ELISA; lipid-free or DMPC-lipidated apoE coated (50 ng protein/well)
T7 construct: Same protein as m3, in complex with dimyristoyl phosphatidylcholine (not covalent)
Protocol: (§4) Preparation of apoE and DMPC complex. Dimyristoyl phosphatidylcholine (DMPC) (Avanti Polar Lipids, Alabaster, Ala.) was used at a concentration of 20 mg/ml dissolved into phosphate-buffered saline (PBS). DMPC solution was sonicated for 6 min per cycle until the solution became clear and centrifuged at 14,000 rpm for 2 min to pellet debris. ApoE was then added to obtain various final stock concentrations and allowed to incubate at 23.7° C. overnight before use in enzyme-linked immunosorbent assay (ELISA) experiments.
as §1
(§5) All experiments were performed in triplicate. Values are mean±SD. OD, optical density.

[6] = molecular target: T8, DMPC-lipidated apoE4 (DMPC:apoE=4:1) (human, UniProt P02649 19-317); experiment: as above
T8 construct: Same protein as m2, in complex with dimyristoyl phosphatidylcholine (not covalent)
Protocol: as §4, §1, §5

[7] = molecular target: T6, recombinant human apolipoprotein E4, …; experiment: inhibition ELISA; apoE preincubated with 3H1 IgG, added to Aβ1-42-coated wells
Protocol: ApoE and Aβ binding assay. Aβ₁₋₄₂ (Biopeptides) was used to coat the surface of a 96-well plate at 330 ng/well and ELISA was performed essentially as described above. […] Subsequent detection of apoE bound with Aβ was performed with polyclonal anti-apoE, as stated above.
FIGS. 6A and 6B. […] After washing, the binding of apoE to Aβ was detected with polyclonal anti-apoE in an ELISA. […] After incubation, the mixture was added to Aβ₁₋₄₂-coated wells, and the binding of apoE to Aβ was detected with polyclonal anti-apoE after washing. All experiments were performed in triplicate. Values are mean±SD. OD, optical density.

- binding result [1]: no binding
- binding result [2]: no binding
- binding result (apoE(1-260)): no binding
- binding result (apoE(1-240)): no binding
- binding result [3]: no binding
- fold reactivity against apoE3 [4]: 9 fold
- fold increase of reactivity against lipid-free apoE3 [5]: ~120 fold
- fold increase of reactivity against lipid-free apoE4 [6]: ~20 fold
- percent lower IC50 than for apoE3 [7]: ~90%
B1: apoE-specific monoclonal antibody 3H1 (antibody, V domains shown)
VH: EVQLVESGGGLVKPGGSLKLSCAASGFTFSSYAMSWVRQTPEKRLEWVATISSGGSYTYYPDSVKGRFTISRDNAKNTLYLQMSSLRSEDTAMYYCARQFYYYGGSYDYFDYWGQGTTLTVS
VL: DIVLTQSPATLSVTPGDSVSLACRASQSISNNLHWYQQKSHESPRLLIKYAYQSISGIPSRFSGSGSGTDFTLSINSVETEDFGMYFCQQSNSWPLTFGVGTKLEIKR
notes: Mouse monoclonal IgG (detected with anti-mouse IgG; used as purified 3H1 IgG); also called 3H1 IgG; purified 3H1 IgG
